Results published in patent US20050260210A1 (FACET BIOTECH, published 2005).

Biological target: T1, mouse α5β1 integrin (mouse, UniProt P11688 45-1053; P09055 21-798)
T1 construct: Named as present on mouse xenograft tumor vasculature
Assay: not described

T1 sequence (P11688 45-1053, chain 1 of 2): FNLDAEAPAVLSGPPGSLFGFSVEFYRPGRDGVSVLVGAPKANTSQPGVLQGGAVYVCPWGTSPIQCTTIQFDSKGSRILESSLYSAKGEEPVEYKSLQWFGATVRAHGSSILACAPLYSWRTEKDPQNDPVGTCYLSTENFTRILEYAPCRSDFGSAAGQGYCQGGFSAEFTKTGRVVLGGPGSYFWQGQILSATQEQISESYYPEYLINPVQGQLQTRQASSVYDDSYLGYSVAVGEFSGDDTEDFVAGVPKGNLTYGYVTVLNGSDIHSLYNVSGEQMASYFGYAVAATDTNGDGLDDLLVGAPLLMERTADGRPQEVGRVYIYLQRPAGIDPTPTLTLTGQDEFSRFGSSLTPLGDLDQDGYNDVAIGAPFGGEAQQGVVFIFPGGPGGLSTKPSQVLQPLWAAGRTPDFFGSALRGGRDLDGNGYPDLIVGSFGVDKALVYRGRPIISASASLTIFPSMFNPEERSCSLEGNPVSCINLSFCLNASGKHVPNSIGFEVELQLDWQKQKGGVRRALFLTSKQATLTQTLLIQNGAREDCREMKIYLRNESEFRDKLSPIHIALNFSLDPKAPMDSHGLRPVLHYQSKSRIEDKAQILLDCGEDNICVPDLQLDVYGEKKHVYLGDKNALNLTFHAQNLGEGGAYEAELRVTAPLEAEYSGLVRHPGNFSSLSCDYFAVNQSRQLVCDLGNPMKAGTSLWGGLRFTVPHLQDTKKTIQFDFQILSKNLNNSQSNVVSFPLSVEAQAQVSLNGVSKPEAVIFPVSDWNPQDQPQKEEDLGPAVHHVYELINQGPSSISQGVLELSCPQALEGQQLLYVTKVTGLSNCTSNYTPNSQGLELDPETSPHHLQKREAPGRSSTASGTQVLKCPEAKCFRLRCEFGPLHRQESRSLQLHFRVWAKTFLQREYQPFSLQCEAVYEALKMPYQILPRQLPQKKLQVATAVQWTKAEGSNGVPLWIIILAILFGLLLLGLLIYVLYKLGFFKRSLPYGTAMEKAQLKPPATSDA
T1 sequence (P09055 21-798, chain 2 of 2): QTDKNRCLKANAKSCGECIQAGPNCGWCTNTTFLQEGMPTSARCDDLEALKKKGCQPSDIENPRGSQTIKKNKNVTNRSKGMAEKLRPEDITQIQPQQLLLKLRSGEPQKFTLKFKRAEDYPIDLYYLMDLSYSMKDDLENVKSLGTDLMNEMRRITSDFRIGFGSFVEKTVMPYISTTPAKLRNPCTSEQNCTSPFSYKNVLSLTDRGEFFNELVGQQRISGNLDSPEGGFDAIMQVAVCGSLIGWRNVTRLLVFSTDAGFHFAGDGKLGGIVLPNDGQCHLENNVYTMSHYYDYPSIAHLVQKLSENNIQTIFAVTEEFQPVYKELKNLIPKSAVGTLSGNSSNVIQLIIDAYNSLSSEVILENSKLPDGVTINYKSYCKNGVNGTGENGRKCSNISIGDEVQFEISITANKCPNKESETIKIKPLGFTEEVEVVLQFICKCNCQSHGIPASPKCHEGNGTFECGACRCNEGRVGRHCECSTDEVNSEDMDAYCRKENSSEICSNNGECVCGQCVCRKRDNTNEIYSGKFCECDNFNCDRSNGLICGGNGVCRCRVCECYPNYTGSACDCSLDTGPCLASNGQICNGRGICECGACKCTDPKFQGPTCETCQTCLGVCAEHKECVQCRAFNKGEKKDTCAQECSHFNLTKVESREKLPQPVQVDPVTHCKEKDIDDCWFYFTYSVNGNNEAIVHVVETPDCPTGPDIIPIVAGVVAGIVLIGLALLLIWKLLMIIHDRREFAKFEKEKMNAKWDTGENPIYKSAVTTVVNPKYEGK

Row | binding result | Binder
1 | no binding | IIA1, anti-α5β1 mouse antibody (antibody, mouse IgG1, V domains shown, also called mouse anti-α5β1 antibody) VH: QVQLKESGPGLVAPSQSLSITCTISGFSLTDYGVHWVRQPPGKGLEWLVVIWSDGSSTYNSALKSRMTIRKDNSKSQVFLIMNSLQTDDSAMYYCARHGTYYGMTTTGDALDYWGQGTSVTVSS VL: QIVLTQSPAIMSASLGERVTMTCTASSSVSSNYLHWYQQKPGSAPNLWIYSTSNLASGVPARFSGSGSGTSYSLTISSMEAEDAATYYCHQYLRSPPTFGGGTKLEIK
2 | no binding | M200, chimeric anti-α5β1 antibody (antibody, IgG4, V domains shown, also called volociximab) VH: QVQLKESGPGLVAPSQSLSITCTISGFSLTDYGVHWVRQPPGKGLEWLVVIWSDGSSTYNSALKSRMTIRKDNSKSQVFLIMNSLQTDDSAMYYCARHGTYYGMTTTGDALDYWGQGTSVTVSS VL: QIVLTQSPAIMSASLGERVTMTCTASSSVSSNYLHWYQQKPGSAPNLWIYSTSNLASGVPARFSGSGSGTSYSLTISSMEAEDAATYYCHQYLRSPPTFGGGTKLEIK
